Results: paper PMC5479831, “Semi-rational engineering of a thermostable aldo–keto reductase from Thermotoga maritima for synthesis of enantiopure ethyl-2-hydroxy-4-phenylbutyrate (EHPB)” (Scientific Reports, 2017)
Substitutions are numbered along the chain they refer to. Names and notes keep the numbering of the source.

B1: Tm1743 (Thermotoga maritima MSB8) (protein)
chain: MLYKELGRTGEEIPALGLGTWGIGGFETPDYSRDEEMVELLKTAIKMGYTHIDTAEYYGGGHTEELIGKAIKDFRREDLFIVSKVWPTHLRRDDLLRSLENTLKRLDTDYVDLYLIHWPNPEIPLEETLSAMAEGVRQGLIRYIGVSNFDRRLLEEAISKSQEPIVCDQVKYNIEDRDPERDGLLEFCQKNGVTLVAYSPLRRTLLSEKTKRTLEEIAKNHGATIYQIMLAWLLAKPNVVAIPKAGRVEHLRENLKATEIKLSEEEMKLLDSLG
B2: Tm1743 (Thermotoga maritima MSB8; W21S/W86N) (protein)
chain: B1 chain with W21S, W86N
B3: Tm1743 (Thermotoga maritima MSB8; W118H/W21L) (protein)
chain: B1 chain with W21L, W118H
B4: Tm1743 (Thermotoga maritima MSB8; W21S/W86E) (protein)
chain: B1 chain with W21S, W86E
B5: Tm1743 (Thermotoga maritima MSB8; W118E/W21L) (protein)
chain: B1 chain with W21L, W118E

The molecules below were run on CCOC(=O)C(=O)CCc1ccccc1 (assay: purified protein). Conditions: apparent, 0.25 mM NADPH, 50 mM potassium phosphate pH 6.5, 35 °C, 30 mM DMSO.
Type: biochemical, Thermotoga maritima

Q: What does the source list for B1?
A: Km: 1100 ± 40 µM; kcat: 1.96 ± 0.02 s⁻¹; kcat/Km: 1780 ± 30 M⁻¹ s⁻¹

Q: How did the Km turn out when B2 was run?
A: 1620 ± 20 µM

Q: What about the kcat of the same molecule?
A: 0.84 ± 0.01 s⁻¹

Q: What about the kcat/Km of the same molecule?
A: 510 ± 20 M⁻¹ s⁻¹

Q: With B3 as the molecule, how does the Km read?
A: 15980 ± 200 µM

Q: And the kcat?
A: 1.98 ± 0.01 s⁻¹

Q: And the kcat/Km?
A: 120 ± 10 M⁻¹ s⁻¹

Q: B4 was tested. Which Km did it give?
A: 1250 ± 20 µM

Q: And the kcat?
A: 1.01 ± 0.01 s⁻¹

Q: And the kcat/Km?
A: 810 ± 20 M⁻¹ s⁻¹

Q: Which results are given for B5?
A: Km: 10530 ± 100 µM; kcat: 1.98 ± 0.02 s⁻¹; kcat/Km: 190 ± 10 M⁻¹ s⁻¹

These molecules were tested against T1, Tm1743 (Thermotoga maritima, UniProt Q9X265) (assay: X-ray crystal structure, […] Å). Conditions: co-crystallised, protein:NADP+ 1:1.5 molar; cofactor binding site.
T1 construct: gene TM_1743

Q: Which “X-ray crystal structure, 2.0 Å” value does the source give for NC(=O)c1ccc[n+]([C@@H]2O[C@H](COP(=O)(O)OP(=O)(O)OC[C@H]3O[C@@H](n4cnc5c(N)ncnc54)[C@H](OP(=O)(O)O)[C@@H]3O)[C@@H](O)[C@H]2O)c1 [NADP^+] here?
A: we crystallized Tm1743 in complex with the cofactor NADP^+
